Experiment [1] deals with Lck SH2 domain (UniProt P06239 118-231, biotin on the Avi-tag (yeast binding assay, pull-down)). The experiment can be described thus: fluorescence polarisation. In general terms: Fluorescence polarisation rises when a labelled molecule tumbles more slowly, as on binding a larger partner.
Experiment [2] deals with the eight SFK SH2 domains. Briefly: fluorescence polarisation.

Non-standard residues stand in square brackets, D forms with d. Primed or numbered codes have the meaning given here. No end group written: not given here. *: point of attachment. FITC = O=C1OC2(c3ccc(O)cc3Oc3cc(O)ccc32)c2ccc(NC(=S)*)cc21; pY = N[C@@H](Cc1ccc(OP(=O)(O)O)cc1)C(=O)O; FITC′ = not defined here

Sequence of Lck SH2 domain (P06239 118-231): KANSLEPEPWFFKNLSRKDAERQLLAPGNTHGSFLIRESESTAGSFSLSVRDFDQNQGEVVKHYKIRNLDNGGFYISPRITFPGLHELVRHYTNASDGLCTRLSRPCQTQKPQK

Usually Kd stands for the free concentration of one partner at which half of the binding sites on the other are occupied at equilibrium, for simple one-to-one binding. Higher therefore signals lower affinity. Consider {FITC}-TEGQ[pY]QPQPA [(FITC)-TEGQpYQPQPA], for which the affinity in experiment [1], expressed as Kd, was 2200 nM.

In experiment [2], EPQ[pY]EEIPIYLK-{FITC′} [EPQp…-(FITC)] showed a Kd of 310 to 675 nM.

Molecule {FITC}-ADND[pY]IIPLPD [(FITC)-ADNDpYIIPLPD] yielded a Kd in experiment [1] of 955 nM.
